# Read-outs that look alike come from different tables or passages of the source.
# B1: LCD: Catalytic domain (179 aa) of the lysin of C. difficile phage phiC2; SEQ ID NO:2; included as a control (protein)
# chain: MKICITVGHSILKSGACTSADGVVNEYQYNKSLAPVLADTFRKEGHKVDVIICPEKQFKTKNEEKSYKIPRVNSGGYDLLIELHLNASNGQGKGSEVLYYSNKGLEYATRICDKLGTVFKNRGAKLDKRLYILNSSKPTAVLIESFFCDNKEDYDKAKKLGHEGIAKLIVEGVLNKNIN
# notes: Catalytic domain (179 aa) of the lysin of C. difficile phage phiC2; included as a control
# What was measured:
# [1] = tested on: C. difficile R20291; assay: Minimum inhibitory concentration (MIC) on strain R20291; type: cell-based, Clostridium difficile; settings: strain R20291, BHIS, 37° C. for 18 h
# Protocol: The minimum inhibitory concentrations (MICs) of LHD and LCD were determined using the protocol of Wiegand, et al. (Wiegand, Hilpert et al. 2008) with some modifications, as described previously (Gilmer, Schmitz et al. 2017). In brief, strain R20291 was grown in BHIS and adjusted to ˜5×10^5 cells/ml in BHIS, and distributed into the wells of a 96-well round bottom polystyrene microtiter plate. In the wells of each row, either sterile-filtered lysin or control vehicle (metronidazole, vancomycin and fidaxomicin) was added with a final concertation varied from 200 μg/ml to 0.19 μg/ml (2-fold dilution) (Wiegand, Hilpert et al. 2008). The plates were incubated at 37° C. for 18 h. The MIC was “the lowest or minimum concentration of lysin or control vehicle that prevented the formation of a cell pellet (a measure of growth) on the bottom of the wells” (Gilmer, Schmitz et al. 2017). The MICs were also confirmed by measuring the OD600 values using a Bio-Rad plate reader (Bio-Rad, Hercules, CA).
# [2] = tested on: C. difficile R20291; assay: Optical drop assay, lytic activity on C. difficile R20291; type: cell-based, Clostridium difficile; settings: strain R20291, 200 μg/ml
# Protocol: (§1) The lytic activity of proteins LHD and LCD against C. difficile strains was determined as previously described (Wang, Euler et al. 2015). Briefly, C. difficile strains were cultured in an anaerobic chamber to mid-log phase, and the bacterial pellets were harvested by centrifugation at 3000×g for 5 min. Pellets were washed twice and re-suspended in sterilized ddH2O, and resuspensions were not buffered. Prior to tests, bacterial optical density at 600 nm (OD600) was adjusted to approximately 0.8-1.0. Proteins LHD and LCD were added into the cell re-suspension with the final concentration of 200 μg/ml. The drop in OD600 at 37° C. was measured every 10 minutes for 60 min˜90 min. Bacterial re-suspension with sterilized water was also set as a control. Three repeats were included in each test.
# [3] = target: Clostridium difficile toxin B (TcdB) (Clostridioides difficile, UniProt P18177); assay: Inhibition of TcdB cytotoxicity in CT26 cells (cell rounding, non-glucosylated Rac1 Western blot); type: cell-based; settings: pre-treatment 750 ng/ml 1 hr, TcdB 15 ng/ml 5 hrs
# Chain of Clostridium difficile toxin B (TcdB) (P18177 whole entry): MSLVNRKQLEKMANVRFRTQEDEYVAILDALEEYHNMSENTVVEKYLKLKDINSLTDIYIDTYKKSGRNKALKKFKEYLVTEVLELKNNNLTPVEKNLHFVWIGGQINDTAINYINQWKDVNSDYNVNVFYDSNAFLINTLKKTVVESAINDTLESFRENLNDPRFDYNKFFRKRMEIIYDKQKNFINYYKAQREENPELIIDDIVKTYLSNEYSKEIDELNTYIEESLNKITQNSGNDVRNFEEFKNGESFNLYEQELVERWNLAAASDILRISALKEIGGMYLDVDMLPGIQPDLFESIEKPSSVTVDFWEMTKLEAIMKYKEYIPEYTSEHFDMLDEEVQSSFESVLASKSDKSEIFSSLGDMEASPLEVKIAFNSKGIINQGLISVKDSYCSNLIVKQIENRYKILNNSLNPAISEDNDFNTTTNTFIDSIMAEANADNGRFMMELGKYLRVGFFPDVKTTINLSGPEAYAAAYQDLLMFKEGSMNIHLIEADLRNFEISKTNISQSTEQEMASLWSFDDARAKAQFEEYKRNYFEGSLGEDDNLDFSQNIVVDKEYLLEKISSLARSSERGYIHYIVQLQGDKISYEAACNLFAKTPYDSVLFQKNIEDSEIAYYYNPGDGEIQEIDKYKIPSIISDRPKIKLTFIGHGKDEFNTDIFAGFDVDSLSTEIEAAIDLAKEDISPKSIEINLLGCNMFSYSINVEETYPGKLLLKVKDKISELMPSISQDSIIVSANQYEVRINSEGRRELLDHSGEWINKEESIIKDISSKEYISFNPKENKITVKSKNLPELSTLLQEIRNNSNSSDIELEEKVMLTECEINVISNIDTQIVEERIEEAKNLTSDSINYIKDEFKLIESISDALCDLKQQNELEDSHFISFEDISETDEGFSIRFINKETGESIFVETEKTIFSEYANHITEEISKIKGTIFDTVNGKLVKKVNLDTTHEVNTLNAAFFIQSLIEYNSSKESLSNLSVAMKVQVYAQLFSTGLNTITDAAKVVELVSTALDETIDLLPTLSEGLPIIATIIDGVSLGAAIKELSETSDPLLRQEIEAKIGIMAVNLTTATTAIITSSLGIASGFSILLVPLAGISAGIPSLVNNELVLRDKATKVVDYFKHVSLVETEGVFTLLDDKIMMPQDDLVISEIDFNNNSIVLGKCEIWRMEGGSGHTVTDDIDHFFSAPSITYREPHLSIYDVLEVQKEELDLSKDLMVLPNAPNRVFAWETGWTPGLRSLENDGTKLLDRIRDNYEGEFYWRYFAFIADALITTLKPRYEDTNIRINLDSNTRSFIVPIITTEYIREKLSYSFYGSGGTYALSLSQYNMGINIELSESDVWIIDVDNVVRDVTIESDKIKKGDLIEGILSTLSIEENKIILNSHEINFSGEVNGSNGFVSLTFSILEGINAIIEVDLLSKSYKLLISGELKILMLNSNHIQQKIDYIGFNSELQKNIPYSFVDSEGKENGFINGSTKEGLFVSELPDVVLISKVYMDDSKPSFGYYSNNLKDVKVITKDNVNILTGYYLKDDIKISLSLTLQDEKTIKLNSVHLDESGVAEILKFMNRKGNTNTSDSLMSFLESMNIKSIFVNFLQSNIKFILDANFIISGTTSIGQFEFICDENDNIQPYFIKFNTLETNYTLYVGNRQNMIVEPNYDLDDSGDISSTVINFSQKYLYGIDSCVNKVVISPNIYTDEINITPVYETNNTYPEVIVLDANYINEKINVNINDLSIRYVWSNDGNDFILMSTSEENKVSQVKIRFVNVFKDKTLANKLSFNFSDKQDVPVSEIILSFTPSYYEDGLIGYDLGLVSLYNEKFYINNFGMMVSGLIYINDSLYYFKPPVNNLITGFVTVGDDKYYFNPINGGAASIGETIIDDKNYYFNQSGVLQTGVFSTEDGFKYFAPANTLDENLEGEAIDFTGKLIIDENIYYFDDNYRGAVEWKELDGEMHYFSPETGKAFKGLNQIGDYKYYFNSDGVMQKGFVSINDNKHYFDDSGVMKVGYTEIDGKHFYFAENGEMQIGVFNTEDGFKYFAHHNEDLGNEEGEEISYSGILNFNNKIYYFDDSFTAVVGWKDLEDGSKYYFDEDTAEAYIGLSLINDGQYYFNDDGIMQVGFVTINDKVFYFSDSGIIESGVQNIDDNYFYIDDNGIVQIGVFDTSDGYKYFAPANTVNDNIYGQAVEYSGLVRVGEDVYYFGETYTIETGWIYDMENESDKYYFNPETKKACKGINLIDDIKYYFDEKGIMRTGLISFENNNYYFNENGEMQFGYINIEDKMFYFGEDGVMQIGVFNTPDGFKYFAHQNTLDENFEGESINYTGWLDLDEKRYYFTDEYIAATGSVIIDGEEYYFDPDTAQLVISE
# Protocol: (§2) (FIG. 5A) LHD inhibits TcdB-induced cell rounding. CT26 cells in 12-well plates were exposed to HD or LHD at 750 ng/ml (50 times of TcdB concentration) or nothing for 1 hour, followed by exposure to TcdB at 15 ng/ml for 5 hours. (FIG. 5B) Western-blot analysis of non-glucosylated Rac1 in CT26 cells treated with TcdB in the presence or absence of LHD or HD. TcdB glucosylates Rac1 in cells, serving as a readout for toxin cytotoxicity. Quantitation of Rac1 levels in Western-blot was shown in low panel (*p<0.05). (FIG. 5C) CT26 cells were lysed, and the cytosolic fraction was exposed to TcdB (15 ng/ml) with or without HD at 750 ng/ml (50 times of TcdB concentration) or LHD at 1500 ng/ml (same molecular concentration as HD) or nothing for 1 h followed by Western Blot analysis using a monoclonal antibody that only recognizes non-glucosylated Rac1. β-actin was used as an equal loading control. Quantitation of Rac1 levels in Western-blot was shown in low panel (****p<0.0001).
# It was reported that the human defensin protein HD5 (HD) could inhibit TcdB (Giesemann, Guttenberg et al. 2008). Therefore, we evaluated the inhibitory effects of LHD and HD on TcdB. Briefly, CT26 cells in 12-well plates were exposed to LHD, synthesized HD or PBS at 750 ng/ml (50 times of TcdB concentration) for 1 hr, followed by exposure to TcdB at 15 ng/ml for 5 hrs. Total cell lysates were subjected to 12% SDS-PAGE separation, and transferred onto a Nylon membrane. Following blocking for 1 hr at room temperature with 5% skim milk, the membrane was incubated overnight at 4° C. with RAC1 antibody (1:1000, Cat: 610650, BD Biosciences) and β-actin antibody (1:10000, Cat: A5441, Sigma-Aldrich).
# [4] = target: Glucosyltransferase (GT) activity of TcdB (Clostridioides difficile, UniProt P18177); assay: TcdB glucosyltransferase activity on Rac1 in CT26 cytosolic fraction; type: biochemical, Clostridium difficile; settings: TcdB 15 ng/ml, 750 ng/ml, 1 hr
# Chain of Glucosyltransferase (GT) activity of TcdB (P18177 whole entry): as above
# Protocol: as §2
# Glucosyltransferase (GT) activity of TcdB was also measured by its ability to glucosylate Rho GTPase Rac1 in cell lysates (Zhang, Shi et al. 2013). CT26 cell pellets were resuspended in a reaction buffer (50 mM HEPES, pH 7.5, 100 mM KCl, 1 mM MnCl2 and 2 mM MgCl2), and lysed by passing through a 30 G needle for 40 times. […]
# [5] = tested on: C. difficile strains M120, VPI 10463, CD630, LC693, 1377; assay: Optical drop assay, lytic activity on other clinical epidemic C. difficile strains; type: cell-based, Clostridium difficile; settings: different types of clinical epidemic strains, 200 μg/ml
# Description: C. difficile strains R20291 (ribotype 027), M120 (ribotype 078), VPI 10463 (ribotype 087; ATCC 43255), CD630 (ribotype 012), LC693 (ribotype unknown, ST201), and 1377 (ribotype 012) were used in this study. Strains M120 and VPI 10463 were provided by Dr. Joseph A. Sorg from Texas A&M University. Strains R20291 and CD630 were provided by Dr. Abraham L. Sonenshein from Tufts University. Strains 1377 and LC693 were epidemic clinical strains in China (Li, Liu et al. 2015, Peng, Liu et al. 2017).
# as §1
# [6] = Clostridioides difficile, read-out: MIC
Molecule,"MIC [1, 6] [µg/mL]",lytic activity (drop in OD600) [2],glucosyltransferase activity of TcdB [4],further results
"Cc1ncc([N+](=O)[O-])n1CCO [Metronidazole, metronidazole]",4,,,
"HD5: Human alpha-defensin 5 peptide (32 aa), synthesized; SEQ ID NO:3 (ATCYCRTGRCATRESLSGVCEISGRLYRLCCR) [reference compound]",,moderate lytic activity,significantly inhibited,cell rounding caused by TcdB [3]: decreased cell rounding; non-glucosylated Rac1 in cells (readout of cytotoxicity of TcdB) [3]: inhibited the cytotoxicity
"CN[C@H](CC(C)C)C(=O)N[C@H]1C(=O)N[C@@H](CC(N)=O)C(=O)N[C@H]2C(=O)N[C@H]3C(=O)N[C@H](C(=O)N[C@H](C(=O)O)c4cc(O)cc(O)c4-c4cc3ccc4O)[C@H](O)c3ccc(c(Cl)c3)Oc3cc2cc(c3O[C@@H]2O[C@H](CO)[C@@H](O)[C@H](O)[C@H]2O[C@H]2C[C@](C)(N)[C@H](O)[C@H](C)O2)Oc2ccc(cc2Cl)[C@H]1O [Vancomycin, vancomycin]",4,,,
"CCc1c(Cl)c(O)c(Cl)c(O)c1C(=O)O[C@H]1[C@H](O)[C@H](OC)[C@H](OC/C2=C\C=C\C[C@H](O)/C(C)=C/[C@H](CC)[C@@H](O[C@@H]3OC(C)(C)[C@@H](OC(=O)C(C)C)[C@H](O)[C@@H]3O)/C(C)=C/C(C)=C/C[C@@H]([C@@H](C)O)OC2=O)O[C@@H]1C [Fidaxomicin, fidaxomicin]",0.25,,,
B1,,potent lytic activities,significantly inhibited,lytic activity (drop in OD600) [5]: potent lytic activities; MIC [1]: 1.56 µg/mL
